Measured values published in patent US20220298218A1 (ANTAG THERAPEUTICS, published 2022).
*1 amine or outer side, *2 acyl side, *3 side chain or, on linkers, in order; H or OH if unused. Where no end group is shown, it is not given here. Side-chain parts run from the residue outwards. [ ]: non-standard residue; d: D form. The star is where a group is joined. C18 diacid = O=C(O)CCCCCCCCCCCCCCCCC(=O)*; C16 diacid = O=C(O)CCCCCCCCCCCCCCC(=O)*; γGlu = O=C(O)[C@H](CCC(=O)[*:2])N[*:1]; Glutaryl = O=C(CCCC(=O)[*:2])[*:1]; Nle = CCCC[C@H](N)C(=O)O; AEEA = NCCOCCOCC(=O)O; Aib = CC(C)(N)C(=O)O

B1: AT674 (peptide)
peptide: EGTFISEYSI[Aib][Nle]EKIK(C16 diacid)QQEFVEWLLAQKPSSGAPPPS-OH
modifications: N-terminus assumed
SMILES: CCCC[C@H](NC(=O)C(C)(C)NC(=O)[C@@H](NC(=O)[C@H](CO)NC(=O)[C@H](Cc1ccc(O)cc1)NC(=O)[C@H](CCC(=O)O)NC(=O)[C@H](CO)NC(=O)[C@@H](NC(=O)[C@H](Cc1ccccc1)NC(=O)[C@@H](NC(=O)CNC(=O)[C@@H](N)CCC(=O)O)[C@@H](C)O)[C@@H](C)CC)[C@@H](C)CC)C(=O)N[C@@H](CCC(=O)O)C(=O)N[C@@H](CCCCN)C(=O)N[C@H](C(=O)N[C@@H](CCCCNC(=O)CCCCCCCCCCCCCCC(=O)O)C(=O)N[C@@H](CCC(N)=O)C(=O)N[C@@H](CCC(N)=O)C(=O)N[C@@H](CCC(=O)O)C(=O)N[C@@H](Cc1ccccc1)C(=O)N[C@H](C(=O)N[C@@H](CCC(=O)O)C(=O)N[C@@H](Cc1c[nH]c2ccccc12)C(=O)N[C@@H](CC(C)C)C(=O)N[C@@H](CC(C)C)C(=O)N[C@@H](C)C(=O)N[C@@H](CCC(N)=O)C(=O)N[C@@H](CCCCN)C(=O)N1CCC[C@H]1C(=O)N[C@@H](CO)C(=O)N[C@@H](CO)C(=O)NCC(=O)N[C@@H](C)C(=O)N1CCC[C@H]1C(=O)N1CCC[C@H]1C(=O)N1CCC[C@H]1C(=O)N[C@@H](CO)C(=O)O)C(C)C)[C@@H](C)CC
B2: AT675 (peptide)
peptide: [γGlu]GTFISDYSIAMDKIK(C16 diacid)QQDFVNWLLAQKPSSGAPPPS-OH
modifications: N-terminus assumed
SMILES: CC[C@H](C)[C@H](NC(=O)[C@H](CO)NC(=O)[C@H](Cc1ccc(O)cc1)NC(=O)[C@H](CC(=O)O)NC(=O)[C@H](CO)NC(=O)[C@@H](NC(=O)[C@H](Cc1ccccc1)NC(=O)[C@@H](NC(=O)CNC(=O)CC[C@H](N)C(=O)O)[C@@H](C)O)[C@@H](C)CC)C(=O)N[C@@H](C)C(=O)N[C@@H](CCSC)C(=O)N[C@@H](CC(=O)O)C(=O)N[C@@H](CCCCN)C(=O)N[C@H](C(=O)N[C@@H](CCCCNC(=O)CCCCCCCCCCCCCCC(=O)O)C(=O)N[C@@H](CCC(N)=O)C(=O)N[C@@H](CCC(N)=O)C(=O)N[C@@H](CC(=O)O)C(=O)N[C@@H](Cc1ccccc1)C(=O)N[C@H](C(=O)N[C@@H](CC(N)=O)C(=O)N[C@@H](Cc1c[nH]c2ccccc12)C(=O)N[C@@H](CC(C)C)C(=O)N[C@@H](CC(C)C)C(=O)N[C@@H](C)C(=O)N[C@@H](CCC(N)=O)C(=O)N[C@@H](CCCCN)C(=O)N1CCC[C@H]1C(=O)N[C@@H](CO)C(=O)N[C@@H](CO)C(=O)NCC(=O)N[C@@H](C)C(=O)N1CCC[C@H]1C(=O)N1CCC[C@H]1C(=O)N1CCC[C@H]1C(=O)N[C@@H](CO)C(=O)O)C(C)C)[C@@H](C)CC
B3: AT680 (peptide)
peptide: EGTFISDYSIAMDKIK([AEEA-AEEA-γGlu-C18 diacid])QQDFVNWLLAQKPSSGAPPPS-OH
modifications: N-terminus assumed
SMILES: CC[C@H](C)[C@H](NC(=O)[C@H](CO)NC(=O)[C@H](Cc1ccc(O)cc1)NC(=O)[C@H](CC(=O)O)NC(=O)[C@H](CO)NC(=O)[C@@H](NC(=O)[C@H](Cc1ccccc1)NC(=O)[C@@H](NC(=O)CNC(=O)[C@@H](N)CCC(=O)O)[C@@H](C)O)[C@@H](C)CC)C(=O)N[C@@H](C)C(=O)N[C@@H](CCSC)C(=O)N[C@@H](CC(=O)O)C(=O)N[C@@H](CCCCN)C(=O)N[C@H](C(=O)N[C@@H](CCCCNC(=O)COCCOCCNC(=O)COCCOCCNC(=O)CC[C@H](NC(=O)CCCCCCCCCCCCCCCCC(=O)O)C(=O)O)C(=O)N[C@@H](CCC(N)=O)C(=O)N[C@@H](CCC(N)=O)C(=O)N[C@@H](CC(=O)O)C(=O)N[C@@H](Cc1ccccc1)C(=O)N[C@H](C(=O)N[C@@H](CC(N)=O)C(=O)N[C@@H](Cc1c[nH]c2ccccc12)C(=O)N[C@@H](CC(C)C)C(=O)N[C@@H](CC(C)C)C(=O)N[C@@H](C)C(=O)N[C@@H](CCC(N)=O)C(=O)N[C@@H](CCCCN)C(=O)N1CCC[C@H]1C(=O)N[C@@H](CO)C(=O)N[C@@H](CO)C(=O)NCC(=O)N[C@@H](C)C(=O)N1CCC[C@H]1C(=O)N1CCC[C@H]1C(=O)N1CCC[C@H]1C(=O)N[C@@H](CO)C(=O)O)C(C)C)[C@@H](C)CC
B4: AT677 (peptide)
peptide: Glutaryl-GTFISDYSIAMDKIK(C16 diacid)QQDFVNWLLAQKPSSGAPPPS-OH
SMILES: CC[C@H](C)[C@H](NC(=O)[C@H](CO)NC(=O)[C@H](Cc1ccc(O)cc1)NC(=O)[C@H](CC(=O)O)NC(=O)[C@H](CO)NC(=O)[C@@H](NC(=O)[C@H](Cc1ccccc1)NC(=O)[C@@H](NC(=O)CNC(=O)CCCC(=O)O)[C@@H](C)O)[C@@H](C)CC)C(=O)N[C@@H](C)C(=O)N[C@@H](CCSC)C(=O)N[C@@H](CC(=O)O)C(=O)N[C@@H](CCCCN)C(=O)N[C@H](C(=O)N[C@@H](CCCCNC(=O)CCCCCCCCCCCCCCC(=O)O)C(=O)N[C@@H](CCC(N)=O)C(=O)N[C@@H](CCC(N)=O)C(=O)N[C@@H](CC(=O)O)C(=O)N[C@@H](Cc1ccccc1)C(=O)N[C@H](C(=O)N[C@@H](CC(N)=O)C(=O)N[C@@H](Cc1c[nH]c2ccccc12)C(=O)N[C@@H](CC(C)C)C(=O)N[C@@H](CC(C)C)C(=O)N[C@@H](C)C(=O)N[C@@H](CCC(N)=O)C(=O)N[C@@H](CCCCN)C(=O)N1CCC[C@H]1C(=O)N[C@@H](CO)C(=O)N[C@@H](CO)C(=O)NCC(=O)N[C@@H](C)C(=O)N1CCC[C@H]1C(=O)N1CCC[C@H]1C(=O)N1CCC[C@H]1C(=O)N[C@@H](CO)C(=O)O)C(C)C)[C@@H](C)CC

Each binder was assayed against T1, human GIP receptor (human, UniProt P48546 22-466) (assay: cell-based or functional assay).
T1 sequence (looked up): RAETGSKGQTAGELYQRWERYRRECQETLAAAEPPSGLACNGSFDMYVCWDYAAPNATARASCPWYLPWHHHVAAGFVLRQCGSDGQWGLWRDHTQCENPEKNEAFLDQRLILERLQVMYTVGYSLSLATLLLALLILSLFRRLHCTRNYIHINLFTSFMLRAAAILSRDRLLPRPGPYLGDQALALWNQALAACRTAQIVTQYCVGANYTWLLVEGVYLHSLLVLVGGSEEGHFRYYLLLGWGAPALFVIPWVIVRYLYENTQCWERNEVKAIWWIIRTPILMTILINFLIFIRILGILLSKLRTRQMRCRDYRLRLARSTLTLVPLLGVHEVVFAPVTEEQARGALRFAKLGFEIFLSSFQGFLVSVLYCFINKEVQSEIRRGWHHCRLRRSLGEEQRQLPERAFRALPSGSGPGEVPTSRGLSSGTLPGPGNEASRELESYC

First: B1
Second: B2
The “cAMP agonism % Emax” value of the first is lower: 0% for the first, 3% for the second.

B3 and [βGlu]GTFISDYSIAMDKIK(C16 diacid)QQDFVNWLLAQKPSSGAPPPS-OH [AT676] are the same in “cAMP agonism % Emax” value: 0% for the first, 0% for the second.

With B4 the “cAMP agonism % Emax” value was 0%.

First: B1
Second: B2
The “cAMP antagonism” value of the first is 9.6-fold lower: 0.447 nM for the first, 4.3 nM for the second.

Going from B3 to [βGlu]GTFISDYSIAMDKIK(C16 diacid)QQDFVNWLLAQKPSSGAPPPS-OH [AT676], the “cAMP antagonism” value falls from 4.3 nM to 2.33 nM (1.8-fold).

For B4, the “cAMP antagonism” value was 0.447 nM.

Going from B1 to B2, the “cAMP antagonism % inhib” value falls from 93% to 90%.

First: B3
Second: [βGlu]GTFISDYSIAMDKIK(C16 diacid)QQDFVNWLLAQKPSSGAPPPS-OH [AT676]
The “cAMP antagonism % inhib” value of the first is higher: 93% for the first, 91% for the second.

In the case of B4, the “cAMP antagonism % inhib” value is reported as 93%.

Going from B1 to B2, the “cAMP antagonism pIC50” value falls from 9.4 to 8.4.

Going from B3 to [βGlu]GTFISDYSIAMDKIK(C16 diacid)QQDFVNWLLAQKPSSGAPPPS-OH [AT676], the “cAMP antagonism pIC50” value rises from 8.4 to 8.6.

B4 was tested, and the “cAMP antagonism pIC50” value was 9.4.
